The labels stand for the following.
T1: SH3 binding peptide: biotin-SGSGILAPPVPPRNTR-COOH (SMILES …)
T1 peptide: Biotin-SGSGILAPPVPPRNTR-OH

B1: GST fusion of MMSC2 PDZ domain 3 (P13) (other)
chain: FDVELTKNVQGLGITIAGYIGDKKLEPSGIFVKSITKSSAVEHDGRIQIGDQIIAVDGTNLQGFTNQQAVEVLRHTGQTVLLTLMR
notes: GST placed N-terminal as in pGEX vectors; also called PDZ domain number 3; not shown: glutathione S-transferase (GST) encoded by pGEX vectors (Pharmacia)
B2: MMAC1.388-403: biotin-ENEPFDEDQHTQITKV-COOH (peptide)
peptide: Biotin-ENEPFDEDQHTQITKV-OH
SMILES: CC[C@H](C)[C@H](NC(=O)[C@H](CCC(N)=O)NC(=O)[C@@H](NC(=O)[C@H](Cc1c[nH]cn1)NC(=O)[C@H](CCC(N)=O)NC(=O)[C@H](CC(=O)O)NC(=O)[C@H](CCC(=O)O)NC(=O)[C@H](CC(=O)O)NC(=O)[C@H](Cc1ccccc1)NC(=O)[C@@H]1CCCN1C(=O)[C@H](CCC(=O)O)NC(=O)[C@H](CC(N)=O)NC(=O)[C@H](CCC(=O)O)NC(=O)CCCC[C@@H]1SC[C@@H]2NC(=O)N[C@@H]21)[C@@H](C)O)C(=O)N[C@H](C(=O)N[C@@H](CCCCN)C(=O)N[C@H](C(=O)O)C(C)C)[C@@H](C)O
notes: also called MMAC1 C-terminal PDZ peptide
B3: GST fusion of MMSC2 PDZ domain 6 (P11) (other)
chain: RTINIAKGNSSLGMTVSANKDGLGMIVRSIIHGGAISRDGRIAIGDCILSINEESTISVTNAQARAMLRRHSLIGPDIKITYVP
notes: GST placed N-terminal as in pGEX vectors; also called PDZ domain number 6; not shown: glutathione S-transferase (GST) encoded by pGEX vectors (Pharmacia)
B4: GST fusion of MMSC2 PDZ domain 4 (P10) (other)
chain: HVSKFSENSGLGISLEATVGHHFIRSVLPEGPVGHSGKLFSGDELLEVNGITLLGENHQDVVNILKELPIEVTMVCCR
notes: GST placed N-terminal as in pGEX vectors; also called PDZ domain number 4; not shown: glutathione S-transferase (GST) encoded by pGEX vectors (Pharmacia)
B5: GST fusion of MMSC2 PDZ domain 8 (P8) (other)
chain: HMIELEKGHSGLGLSLAGNKDRSRMSVFIVGIDPNGAAGKDGRLQIADELLEINGQILYGRSHQNASSIIKCAPSKVKIIFIR
notes: GST placed N-terminal as in pGEX vectors; also called PDZ domain number 8; not shown: glutathione S-transferase (GST) encoded by pGEX vectors (Pharmacia)
B6: GST fusion of MMSC2 PDZ domain 12 (P3) (other)
chain: RTVEMKKGPTDSLGISIAGGVGSPLGDVPIFIAMMHPTGVAAQTQKLRVGDRIVTICGTSTEGMTHTQAVNLLKNASGSIEMQVVA
notes: GST placed N-terminal as in pGEX vectors; also called PDZ domain number 12; not shown: glutathione S-transferase (GST) encoded by pGEX vectors (Pharmacia)
B7: GST fusion of MMSC2 PDZ domain 10 (P1) (other)
chain: TTIEISKGRTGLGLSIVGGSDTLLGAIIIHEVYEEGAACKDGRLWAGDQILEVNGIDLRKATHDEAINVLRQTPQRVRLTLYR
notes: GST placed N-terminal as in pGEX vectors; also called PDZ domain number 10; not shown: glutathione S-transferase (GST) encoded by pGEX vectors (Pharmacia)
B8: GST fusion of MMSC2 PDZ domain 13 (P4) (other)
chain: KSITLERGPDGLGFSIVGGYGSPHGDLPIYVKTVFAKGAASEDGRLKRGDQIIAVNGQSLEGVTHEEAVAILKRTKGTVTLMVLS
notes: GST placed N-terminal as in pGEX vectors; also called PDZ domain number 13; not shown: glutathione S-transferase (GST) encoded by pGEX vectors (Pharmacia)
B9: GST fusion of MMSC2 PDZ domain 1 (P15) (other)
chain: EVFELLKPPSGGLGFSVVGLRSENRGELGIFVQEIQEGSVAHRDGRLKETDQILAINGQALDQTITHQQAISILQKAKDTVQLVIAR
notes: GST placed N-terminal as in pGEX vectors; Adsorbed to ELISA wells; also called PDZ domain number 1; not shown: glutathione S-transferase (GST) encoded by pGEX vectors (Pharmacia)
B10: GST fusion of MMSC2 PDZ domain 2 (P14) (other)
chain: ETIELVNDGSGLGFGIIGGKATGVIVKTILPGGVADQHGRLCSGDHILKIGDTDLAGMSSEQVAQVLRQCGNRVKLMIAR
notes: GST placed N-terminal as in pGEX vectors; also called PDZ domain number 2; not shown: glutathione S-transferase (GST) encoded by pGEX vectors (Pharmacia)
B11: GST fusion of MMSC2 PDZ domain 11 (P2) (other)
chain: LTIELQKKPGKGLGLSIVGKRNDTGVFVSDIVKGGIADADGRLMQGDQILMVNGEDVRNATQEAVAALLKCSLGTVTLEVGR
notes: GST placed N-terminal as in pGEX vectors; also called PDZ domain number 11; not shown: glutathione S-transferase (GST) encoded by pGEX vectors (Pharmacia)
B12: GST fusion of MMSC2 PDZ domain 7 (P9) (other)
chain: RRVELWREPSKSLGISIVGGRGMGSRLSNGEVMRGIFIKHVLEDSPAGKNGTLKPGDRIVEVDGMDLRDASHEQAVEAIRKAGNPVVFMVQS
notes: GST placed N-terminal as in pGEX vectors; also called PDZ domain number 7; not shown: glutathione S-transferase (GST) encoded by pGEX vectors (Pharmacia)
B13: GST fusion of MMSC2 PDZ domain 5 (P12) (other)
chain: QHIELEKGSKGLGFSILDYQDPIDPASTVIIIRSLVPGGIAEKDGRLLPGDRLMFVNDVNLENSSLEEAVEALKGAPSGTVRIGVAK
notes: GST placed N-terminal as in pGEX vectors; also called PDZ domain number 5; not shown: glutathione S-transferase (GST) encoded by pGEX vectors (Pharmacia)
B14: GST fusion of MMSC2 PDZ domain 9 (P7) (other)
chain: AVDLSSFKNVQHLELPKDQGGLGIAISEEDTLSGVIIKSLTEHGVAATDGRLKVGDQILAVDDEIVVGYPIEKFISLLKTAKMTVKLTIHA
notes: GST placed N-terminal as in pGEX vectors; also called PDZ domain number 9; not shown: glutathione S-transferase (GST) encoded by pGEX vectors (Pharmacia)

Assay [1] concerns the target T1, SH3 binding peptide: …. The assay is described as follows: ELISA, GST-PDZ domain on plate, biotin-peptide/streptavidin-alkaline phosphatase complex in solution. From the text: (§1) cDNAs encoding each of the MMSC2 PDZ domains (amino acid residues identified in Table 1), and any desired control proteins, were generated by PCR and subcloned as glutathione S-transferase (GST) fusions in pGEX vectors (Pharmacia). After sequencing to confirm expression construct integrity, the resulting clones were expressed in E. coli and the desired fusion proteins isolated with glutathione-agarose and recovered with glutathione elution. These fusion proteins or control proteins were then adsorbed to different wells of a 96-well ELISA plate and remaining sites blocked with BSA. Synthetic commercially synthesized peptides encoding the desired PDZ-binding domain (i.e., the 16 C-terminal amino acids of MMAC1, or the C-terminal peptide sequences of interacting proteins identified by the approach of Example 2, or the C-terminal peptide sequences identified by the approach of Example 3), or a control peptide, and biotinylated at the amino-terminus, were pre-bound to streptavidin-alkaline phosphatase in a 4:1 molar ratio. The biotinylated peptide streptavidin-alkaline phosphatase complexes were then blocked with free biotin. These pre-bound peptide streptavidin-alkaline phosphatase complexes were then incubated with the immobilized PDZ domains in wash buffer containing PBS, BSA and triton-X100. Unbound material was removed with repeated washes. Bound peptide/streptavidin-alkaline phosphatase complex was then quantitated by a colorimetric phosphatase assay read on a 96-well plate reader. The following peptides were used in the initial study:
(§2) The relative affinity of each of the 13 PDZ domains encoded by MMSC2 for an MMAC1 C-terminal PDZ peptide as measured by an ELISA assay is set forth in Table 2.
In general terms: In an ELISA, binding on a coated surface is turned into a signal by an enzyme label.

Assay [2] has as its target B2. Described as above.
Excerpt: as §1, §2

For assay [3], the target named is B8. The assay is described as follows: summary of the PDZ binding assay.
Assay [4] deals with B12. The assay is described as follows: summary of the PDZ binding assay.
For assay [5], the target named is B7. Nature of the assay: summary of the PDZ binding assay.

*: point of attachment. Biotin = O=C1N[C@H]2[C@H](CS[C@H]2CCCCC(=O)*)N1

The results in this text go back to patent publication US20020146711A1 (published 2002).

As for B1, the figures for the A405 in assay [1] and in assay [2] were 0.008 A405 and 0.006 A405, respectively.
Take B2: the binding result in assay [3], in assay [4] and in assay [5] was “binds” throughout.
For the molecule B3, the values for the A405 in assay [1] and in assay [2] were 0.017 A405 and 0.016 A405, respectively.
Take B4: the A405 in assay [1] came to 0.01 A405; in assay [2], 0.024 A405.
Turning to B5, the A405 in assay [1] amounted to 0.008 A405; in assay [2], 0.006 A405.
On the same counts, the results for B6 are 0.011 A405 and 0.003 A405.
B7: the A405 is 0.002 A405 in assay [1] and 0.174 A405 in assay [2].
Taken in the same sequence, the figures for B8 were 0.006 A405 and 0.456 A405.
For the molecule B9, the A405 was 0.007 A405 in assay [1] and 0.011 A405 in assay [2].
Take B10: the figures for the A405 in assay [1] and in assay [2] were 0.006 A405 and 0.001 A405, respectively.
On the same counts, the results for B11 are 0.009 A405 and 0.012 A405.
B12: the A405 in assay [1] amounted to 0.006 A405; in assay [2] it was 0.667 A405.
On to B13, for which the A405 came out at 0.005 A405 in assay [1] and 0 A405 in assay [2].
As to B14, the A405 in assay [1] came to 0.009 A405; in assay [2] it was 0.017 A405.
